Measurements reported in publication PMC10482006.

Biological target: Kcnj13 (Kir7.1) from D. rerio fused to mCherry (D. rerio)
Experiment: mass photometry; OneMP mass photometer (Refeyn), buffer E, sample diluted 1:10 immediately before analysis, mass calibrated with NativeMark; protein solubilised in DDM with CHS

stoichiometry N: 4
Substance: Kcnj13 (Kir7.1) from D. rerio fused to mCherry (natural protein)
